Consider one molecule from PMC4499147, “Modulation of LSD1 phosphorylation by CK2/WIP1 regulates RNF168-dependent 53BP1 recruitment in response to DNA damage” (Nucleic Acids Research, 2015).

The target of assay [1] is T1, bacterially produced HIS-RNF168 (human, UniProt Q8IYW5 1-571).
T1 construct: E3 ligase RNF168, human; the bacterial construct is not described; source: bacterially produced
The assay can be described thus: pull-down; GST fusion (1 μg) with HIS-tagged fusion (1 μg) in 500 μl NETN buffer (20 mM Tris-HCl pH 8.0, 0.15 M NaCl, 1 mM EDTA, 0.5% NP-40) at 4°C overnight; Glutathione-Sepharose beads. The note with it: both partners purified.

Assay [2] addresses bacterially produced HIS-LSD1 (human, UniProt O60341 1-852). Described as above. The note with it: both partners purified.

B1: bacterially produced GST-53BP1-KBD (domain or fragment, human, UniProt Q12888 1234-1616, looked up)
chain: HVLHRHMRTIREVRTLVTRVITDVYYVDGTEVERKVTEETEEPIVECQECETEVSPSQTGGSSGDLGDISSFSSKASSLHRTSSGTSLSAMHSSGSSGKGAGPLRGKTSGTEPADFALPSSRGGPGKLSPRKGVSQTGTPVCEEDGDAGLGIRQGGKAPVTPRGRGRRGRPPSRTTGTRETAVPGPLGIEDISPNLSPDDKSFSRVVPRVPDSTRRTDVGAGALRRSDSPEIPFQAAAGPSDGLDASSPGNSFVGLRVVAKWSSNGYFYSGKITRDVGAGKYKLLFDDGYECDVLGKDILLCDPIPLDTEVTALSEDEYFSAGVVKGHRKESGELYYSIEKEGQRKWYKRMAVILSLEQGNRLREQYGLGPYEAVTPLTKAAD
notes: The limits 1234-1616 are printed for the 53BP1-KBD cDNA clone put into pcDNA3.0; the bacterial construct itself is not described; source: bacterially produced
As to B1, the binding result in assay [1] and in assay [2] was “binds” each time.
